Publication PMC2886590

Molecular target: MLL PHD3 finger (residues 1565-1627), GST cleaved (human) (UniProt Q03164)
Assay: other fluorescence titration

Sequence of MLL PHD3 finger (residues 1565-1627), GST cleaved (human) (Q03164 1565-1627): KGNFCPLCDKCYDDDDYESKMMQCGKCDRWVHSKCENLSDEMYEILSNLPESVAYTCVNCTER

Kd: 19 µM
Substance: H3K4me3 peptide (12-mer histone tail peptide)
